± gives the standard deviation of the averaged measurements.
B1: library; a variant is named by its letters at N, in order (parent)
chain: GCUGUCACCGGUGUAUUACCCUAGUGGUCGACCGGUCUGAUGAGUCUNNNNNNAGACGAAACAGC

Key:
hypoxanthine [1] = variants of: B1; experiment: normalized RNA/DNA level with ligand (relative to sTRSVctl = 100) (log10 (% of sTRSVctl)); ligand: hypoxanthine (xanthine aptamer); higher = less ribozyme self-cleavage, higher mRNA level; conditions: ligand concentration (+) RNA-Seq: 5 mM, HEK293T, reporter: mCherry (pCS4076), ligand present: yes
How it was run: (§1)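 Library plasmids encoding reporter-linked ribozyme switches (mCherry, or eGFP for some folinic acid experiments) were transfected into HEK293T at 4 µg per 6-well well. Ligand, when used, was added 1 h before transfection. Total RNA was extracted with EDTA 72 h later, then reverse-transcribed, amplified, barcoded and sequenced. RNA level was RNA reads over DNA reads, divided by a spiked-in non-cleaving control (or the top 25 sequences), ×100, log10; only sequences with ≥100 DNA reads were kept.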

hypoxanthine [2] = variants of: B1; experiment: normalized RNA/DNA level without ligand (relative to sTRSVctl = 100) (log10 (% of sTRSVctl)); ligand: hypoxanthine (xanthine aptamer); higher = less ribozyme self-cleavage, higher mRNA level; conditions: HEK293T, reporter: mCherry (pCS4076), ligand present: no
How it was run: as §1

GCUGUCACCGGUGUAUUACCCUAGUGGUCGACCGGUCUGAUGAGUCUGCACACAGACGAAACAGC was tested, and the “normalized RNA/DNA level with ligand (log10)” value (hypoxanthine [1]) was 1.9 ± 0.042 and the “normalized RNA/DNA level without ligand (log10)” value (hypoxanthine [2]) was 1.63 ± 0.057.

With GCUGUCACCGGUGUAUUACCCUAGUGGUCGACCGGUCUGAUGAGUCUACACACAGACGAAACAGC the “normalized RNA/DNA level with ligand (log10)” value (hypoxanthine [1]) was 1.92 ± 0.023 and the “normalized RNA/DNA level without ligand (log10)” value (hypoxanthine [2]) was 1.74 ± 0.022.

For GCUGUCACCGGUGUAUUACCCUAGUGGUCGACCGGUCUGAUGAGUCUUCACACAGACGAAACAGC, the “normalized RNA/DNA level with ligand (log10)” value (hypoxanthine [1]) was 1.94 ± 0.088 and the “normalized RNA/DNA level without ligand (log10)” value (hypoxanthine [2]) was 1.741 ± 0.015.

For GCUGUCACCGGUGUAUUACCCUAGUGGUCGACCGGUCUGAUGAGUCUCCACAGAGACGAAACAGC, the “normalized RNA/DNA level with ligand (log10)” value (hypoxanthine [1]) was 1.92 ± 0.04 and the “normalized RNA/DNA level without ligand (log10)” value (hypoxanthine [2]) was 1.66 ± 0.059.

In the case of GCUGUCACCGGUGUAUUACCCUAGUGGUCGACCGGUCUGAUGAGUCUACACAGAGACGAAACAGC, the “normalized RNA/DNA level with ligand (log10)” value (hypoxanthine [1]) is reported as 1.84 ± 0.023 and the “normalized RNA/DNA level without ligand (log10)” value (hypoxanthine [2]) is reported as 1.42 ± 0.054.

GCUGUCACCGGUGUAUUACCCUAGUGGUCGACCGGUCUGAUGAGUCUUCACAGAGACGAAACAGC was tested, and the “normalized RNA/DNA level with ligand (log10)” value (hypoxanthine [1]) was 1.87 ± 0.033 and the “normalized RNA/DNA level without ligand (log10)” value (hypoxanthine [2]) was 1.56 ± 0.056.

GCUGUCACCGGUGUAUUACCCUAGUGGUCGACCGGUCUGAUGAGUCUCCACAUAGACGAAACAGC was tested, and the “normalized RNA/DNA level with ligand (log10)” value (hypoxanthine [1]) was 1.92 ± 0.11 and the “normalized RNA/DNA level without ligand (log10)” value (hypoxanthine [2]) was 1.79 ± 0.049.

In the case of GCUGUCACCGGUGUAUUACCCUAGUGGUCGACCGGUCUGAUGAGUCUGCACAUAGACGAAACAGC, the “normalized RNA/DNA level with ligand (log10)” value (hypoxanthine [1]) is reported as 1.96 ± 0.033 and the “normalized RNA/DNA level without ligand (log10)” value (hypoxanthine [2]) is reported as 1.76 ± 0.037.

In the case of GCUGUCACCGGUGUAUUACCCUAGUGGUCGACCGGUCUGAUGAGUCUACACAUAGACGAAACAGC, the “normalized RNA/DNA level with ligand (log10)” value (hypoxanthine [1]) is reported as 1.92 ± 0.03 and the “normalized RNA/DNA level without ligand (log10)” value (hypoxanthine [2]) is reported as 1.723 ± 0.0032.

For GCUGUCACCGGUGUAUUACCCUAGUGGUCGACCGGUCUGAUGAGUCUCCACCAAGACGAAACAGC, the “normalized RNA/DNA level with ligand (log10)” value (hypoxanthine [1]) was 1.97 ± 0.026 and the “normalized RNA/DNA level without ligand (log10)” value (hypoxanthine [2]) was 1.88 ± 0.046.

For GCUGUCACCGGUGUAUUACCCUAGUGGUCGACCGGUCUGAUGAGUCUGCACCAAGACGAAACAGC, the “normalized RNA/DNA level with ligand (log10)” value (hypoxanthine [1]) was 1.939 ± 0.016 and the “normalized RNA/DNA level without ligand (log10)” value (hypoxanthine [2]) was 1.88 ± 0.023.

For GCUGUCACCGGUGUAUUACCCUAGUGGUCGACCGGUCUGAUGAGUCUACACCAAGACGAAACAGC, the “normalized RNA/DNA level with ligand (log10)” value (hypoxanthine [1]) was 1.97 ± 0.069 and the “normalized RNA/DNA level without ligand (log10)” value (hypoxanthine [2]) was 1.873 ± 0.0035.

In the case of GCUGUCACCGGUGUAUUACCCUAGUGGUCGACCGGUCUGAUGAGUCUGCACCCAGACGAAACAGC, the “normalized RNA/DNA level with ligand (log10)” value (hypoxanthine [1]) is reported as 1.86 ± 0.021 and the “normalized RNA/DNA level without ligand (log10)” value (hypoxanthine [2]) is reported as 1.78 ± 0.035.

In the case of GCUGUCACCGGUGUAUUACCCUAGUGGUCGACCGGUCUGAUGAGUCUUCACCCAGACGAAACAGC, the “normalized RNA/DNA level with ligand (log10)” value (hypoxanthine [1]) is reported as 1.97 ± 0.026 and the “normalized RNA/DNA level without ligand (log10)” value (hypoxanthine [2]) is reported as 1.89 ± 0.029.

In the case of GCUGUCACCGGUGUAUUACCCUAGUGGUCGACCGGUCUGAUGAGUCUCCACCGAGACGAAACAGC, the “normalized RNA/DNA level with ligand (log10)” value (hypoxanthine [1]) is reported as 1.99 ± 0.028 and the “normalized RNA/DNA level without ligand (log10)” value (hypoxanthine [2]) is reported as 1.84 ± 0.2.

With GCUGUCACCGGUGUAUUACCCUAGUGGUCGACCGGUCUGAUGAGUCUGCACCGAGACGAAACAGC the “normalized RNA/DNA level with ligand (log10)” value (hypoxanthine [1]) was 1.89 ± 0.023 and the “normalized RNA/DNA level without ligand (log10)” value (hypoxanthine [2]) was 1.62 ± 0.058.

GCUGUCACCGGUGUAUUACCCUAGUGGUCGACCGGUCUGAUGAGUCUACACCGAGACGAAACAGC was tested, and the “normalized RNA/DNA level with ligand (log10)” value (hypoxanthine [1]) was 1.9 ± 0.12 and the “normalized RNA/DNA level without ligand (log10)” value (hypoxanthine [2]) was 1.55 ± 0.078.

GCUGUCACCGGUGUAUUACCCUAGUGGUCGACCGGUCUGAUGAGUCUCCACCUAGACGAAACAGC was tested, and the “normalized RNA/DNA level with ligand (log10)” value (hypoxanthine [1]) was 2.033 ± 0.0077 and the “normalized RNA/DNA level without ligand (log10)” value (hypoxanthine [2]) was 1.93 ± 0.053.

With GCUGUCACCGGUGUAUUACCCUAGUGGUCGACCGGUCUGAUGAGUCUACACCUAGACGAAACAGC the “normalized RNA/DNA level with ligand (log10)” value (hypoxanthine [1]) was 1.952 ± 0.016 and the “normalized RNA/DNA level without ligand (log10)” value (hypoxanthine [2]) was 1.84 ± 0.024.

With GCUGUCACCGGUGUAUUACCCUAGUGGUCGACCGGUCUGAUGAGUCUCCACGAAGACGAAACAGC the “normalized RNA/DNA level with ligand (log10)” value (hypoxanthine [1]) was 1.95 ± 0.089 and the “normalized RNA/DNA level without ligand (log10)” value (hypoxanthine [2]) was 1.881 ± 0.0042.

For GCUGUCACCGGUGUAUUACCCUAGUGGUCGACCGGUCUGAUGAGUCUGCACGAAGACGAAACAGC, the “normalized RNA/DNA level with ligand (log10)” value (hypoxanthine [1]) was 1.925 ± 0.0075 and the “normalized RNA/DNA level without ligand (log10)” value (hypoxanthine [2]) was 1.75 ± 0.077.

Reference: the supplement of paper PMC6757056
